This note sets out measurements from PMC2780912.

The target in data set [1] is HCV E2 on E2-CT26 cells (Hepatitis C virus (genotype 1a)) (UniProt P27958). As to the kind of experiment: flow cytometry. The conditions noted are these: Flow cytometry: 250 nM aptamer, 1e6 cells, 37 C 15 min; selection buffer 25 mM Tris-HCl, 50 mM KCl, 200 mM NaCl, 0.2 mM EDTA, 5% glycerol, 0.5 mM DTT (pH not …). (In general: Flow cytometry measures light scatter and fluorescence of single cells or particles in a stream.)

For data set [2], the target named is GST-E2 (Hepatitis C virus) (UniProt P27958). As to the kind of experiment: competition (flow cytometry). The conditions noted are these: Flow cytometry: 250 nM aptamer, 1e6 cells, 37 C 15 min; selection buffer 25 mM Tris-HCl, 50 mM KCl, 200 mM NaCl, 0.2 mM EDTA, 5% glycerol, 0.5 mM DTT (pH not …); scale: % inhibition of E2 binding to Huh7.5.1 cells.

Take TCCATTCATGTAACGAACATAGTTTTGGCA [ZE5]: in data set [1], the Kd (in general, the equilibrium constant for the complex coming apart) was determined as 4.29 nM. GGGCCTCGATTTAGTTCGCGGCCATAGGGC [ZE4] yielded a Kd in data set [1] of 8.85 nM. With CGCCGTATTAAGATTGGGAGACCTGGTAGA [ZE3], the Kd in data set [1] is 3.22 nM.

Turning to GAATGAGGAATAATCTAGCTCCTTCGCTGA [ZE2], in data set [1], the Kd is 1.05 nM. For the same sequence, the binding signal in data set [2] came out at 80.
